T1: mouse FcγRII extracellular domain, C-terminally His-tagged (mouse, UniProt P08101 30-210)
T1 construct: the whole entry is named; also called mFcγRII; mFcgRII
T1 sequence: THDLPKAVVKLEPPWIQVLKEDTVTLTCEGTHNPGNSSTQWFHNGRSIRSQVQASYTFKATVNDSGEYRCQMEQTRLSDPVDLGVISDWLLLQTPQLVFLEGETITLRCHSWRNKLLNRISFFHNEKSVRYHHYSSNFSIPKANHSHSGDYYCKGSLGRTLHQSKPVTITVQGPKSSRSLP

T2: mouse FcγRIII extracellular domain, C-terminally His-tagged (mouse, UniProt P08508 31-215)
T2 construct: the whole entry is named; also called mFcγRIII; mFcgRIII
T2 chain: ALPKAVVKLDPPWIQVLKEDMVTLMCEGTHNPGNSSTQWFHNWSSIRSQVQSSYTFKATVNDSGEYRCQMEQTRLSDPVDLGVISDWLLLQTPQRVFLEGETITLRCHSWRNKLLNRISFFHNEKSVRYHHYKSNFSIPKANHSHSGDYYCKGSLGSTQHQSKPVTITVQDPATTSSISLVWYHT

T3: mouse FcγRIII (mouse, UniProt P08508 31-215)
T3 construct: Extracellular domain with C-terminal His tag, made in FreeStyle 293 cells; also called mFcγRIII; mFcgRIII
T3 chain: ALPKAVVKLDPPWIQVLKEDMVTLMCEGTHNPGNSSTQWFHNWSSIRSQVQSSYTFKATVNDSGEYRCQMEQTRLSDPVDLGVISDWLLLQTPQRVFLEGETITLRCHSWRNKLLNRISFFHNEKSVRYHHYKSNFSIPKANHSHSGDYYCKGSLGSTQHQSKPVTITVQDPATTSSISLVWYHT

T4: mouse FcγRII (mouse, UniProt P08101 30-210)
T4 construct: Extracellular domain with C-terminal His tag, made in FreeStyle 293 cells; also called mFcγRII; mFcgRII
T4 sequence: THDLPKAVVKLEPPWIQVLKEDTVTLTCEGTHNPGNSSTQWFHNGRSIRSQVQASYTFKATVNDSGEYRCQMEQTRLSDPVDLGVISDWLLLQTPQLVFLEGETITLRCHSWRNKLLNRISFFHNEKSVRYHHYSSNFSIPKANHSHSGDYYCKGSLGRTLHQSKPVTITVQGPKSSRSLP


Experiments:
[1] = target: T1, mouse FcγRII extracellular domain, …; assay: SPR Biacore T200, KD ratio
Text: (§1) The antibody H chain variable region used was the variable region H237 (SEQ ID NO: 1) of the H chain VH3-IgG1 of the anti-IL-6 receptor antibody Fv4-IgG1 described in WO2009/125825. The antibody L chain commonly used was the L chain MRAL-k0 (SEQ ID NO: 2) of the anti-IL-6 receptor antibody tocilizumab. H237-MB476/MRAL-k0 and H237-MB515/MRAL-k0 were used as templates to introduce new alterations. These variants were expressed and purified by the method of Reference Example 1 and evaluated for their binding to mFcγRII and mFcγRIII by the method of Reference Example 2 using Biacore T200.
(§2) Each altered antibody was analyzed for its interaction with each Fcγ receptor prepared above using Biacore T100 (GE Healthcare Japan Corp.), Biacore T200 (GE Healthcare Japan Corp.), Biacore A100, or Biacore 4000. The running buffer used was HBS-EP+ (GE Healthcare Japan Corp.). The assay temperature was set to 25° C. The sensor chips used were chips prepared by immobilizing Protein L (ACTIGEN or BioVision) onto Series S Sensor Chip CM5 (GE Healthcare Japan Corp.) or Series S Sensor Chip CM4 (GE Healthcare Japan Corp.) by the amine coupling method.
(§3) In order to calculate the KD value of each altered antibody for FcγR, kinetic analysis was conducted according to the following method: first, the antibody of interest was captured onto any of these chips and allowed to interact with mFcγR diluted with a running buffer. For the obtained sensorgram, the assay results were globally fit into the 1:1 Langmuir binding model using Biacore Evaluation Software to calculate an association rate constant ka (L/mol/s) and a dissociation rate constant kd (1/s). From these values, the dissociation constant KD (mol/L) was calculated.

[2] = target: T2, mouse FcγRIII extracellular domain, …; assay: SPR Biacore T200, KD ratio
Text: as §1, §2, §3

[3] = target: T1, mouse FcγRII extracellular domain, …; assay: SPR Biacore T200, KD ratio, template MB515
Text: as §1, §2, §3

[4] = target: T2, mouse FcγRIII extracellular domain, …; assay: SPR Biacore T200, KD ratio, template MB515
Text: as §1, §2, §3

mouse FcγRIII [5] = target: T3, mouse FcγRIII; assay: SPR (Biacore), antibody captured on Protein L
mouse FcγRII [6] = target: T4, mouse FcγRII; assay: SPR (Biacore), antibody captured on Protein L
mouse FcγRIII [7] = target: T3, mouse FcγRIII; assay: SPR (Biacore), KD of H237-mIgG1/MRAL-k0 / KD of variant
Experimental: as §2, §3

mouse FcγRII [8] = target: T4, mouse FcγRII; assay: as above
Experimental: as §2, §3

Binder | relative mFcγRII-binding activity (mIgG1 = 1) [1] [fold] | relative mFcγRIII-binding activity (mIgG1 = 1) [2] [fold] | relative mFcγRII-binding activity (template = 1) [3] [fold] | relative mFcγRIII-binding activity (template = 1) [4] [fold] | relative mFcγRII-binding activity (H237-mIgG1/MRAL-k0 = 1) [1] [fold] | relative mFcγRII-binding activity (template H237-MB515/MRAL-k0 = 1) [1] [fold] | Kd (mouse FcγRIII [5]) [nM] | Kd (mouse FcγRII [6]) [nM] | relative mFcγRIII-binding activity (mIgG1 = 1) (mouse FcγRIII [7]) [fold] | relative mFcγRII-binding activity (mIgG1 = 1) (mouse FcγRII [8]) [fold]
H237-MB545/MRAL-k0 (antibody, mouse IgG1, kappa, copies: 2 + 2) heavy: QVQLQESGPGLVKPSETLSLTCAVSGHSISHDHAWSWVRQPPGEGLEWIGFISYSGITNYNPSLQGRVTISRDNSKNTLYLQMNSLRAEDTAVYYCARSLARTTAMDYWGEGTLVTVSSAKTTPPSVYPLAPGSAAQTNSMVTLGCLVKGYFPEPVTVTWNSGSLSSGVHTFPAVLQSDLYTLSSSVTVPSSTWPSETVTCNVAHPASSTKVDKKIVPRDCGCKPCICEPNEVEMVFIFPPKPKDVLTITLTPKVTCVVVDISKDDPEVQFSWFVDDVEVHTAQTQPREEQFNLTFRSVSELPIMHQDWLNGKEFKCRVDSDAFPAPIEKTISKTKGRPKAPQVYTIPPPKEQMAKDKVSLTCMITDFFPEDITVEWQWNGQPAENYKNTQPIMDTDGSYFVYSKLNVQKSNWEAGNTFTCSVLHEGLHNHHTEKSLSHSPGK light: not shown | 163 | 2.7 | 1.19 | 2.02 | – | – | – | – | – | –
H237-MB546/MRAL-k0 (antibody, mouse IgG1, kappa, copies: 2 + 2) heavy: QVQLQESGPGLVKPSETLSLTCAVSGHSISHDHAWSWVRQPPGEGLEWIGFISYSGITNYNPSLQGRVTISRDNSKNTLYLQMNSLRAEDTAVYYCARSLARTTAMDYWGEGTLVTVSSAKTTPPSVYPLAPGSAAQTNSMVTLGCLVKGYFPEPVTVTWNSGSLSSGVHTFPAVLQSDLYTLSSSVTVPSSTWPSETVTCNVAHPASSTKVDKKIVPRDCGCKPCICEPNEVEMVFIFPPKPKDVLTITLTPKVTCVVVDISKDDPEVQFSWFVDDVEVHTAQTQPREEQFNLTFRSVSELPIMHQDWLNGKEFKCRVDSAAFPAPIERTISKTKGRPKAPQVYTIPPPKEQMAKDKVSLTCMITDFFPEDITVEWQWNGQPAENYKNTQPIMDTDGSYFVYSKLNVQKSNWEAGNTFTCSVLHEGLHNHHTEKSLSHSPGK light: not shown | 158 | 5.6 | 1.15 | 4.28 | – | – | – | – | – | –
H237-MB528/MRAL-k0 (antibody, mouse IgG1, kappa, copies: 2 + 2) heavy: QVQLQESGPGLVKPSETLSLTCAVSGHSISHDHAWSWVRQPPGEGLEWIGFISYSGITNYNPSLQGRVTISRDNSKNTLYLQMNSLRAEDTAVYYCARSLARTTAMDYWGEGTLVTVSSAKTTPPSVYPLAPGSAAQTNSMVTLGCLVKGYFPEPVTVTWNSGSLSSGVHTFPAVLQSDLYTLSSSVTVPSSTWPSETVTCNVAHPASSTKVDKKIVPRDCGCKPCICQPNEVEEVFIFPPKPKDVLTITLTPKVTCVVVDISKDDPEVQFSWFVDDVEVHTAQTQPREEQFNLTFRSVSELPIMHQDWLNGKEFKCRVNSDAFPAPIEKTISKTKGRPKAPQVYTIPPPKEQMAKDKVSLTCMITDFFPEDITVEWQWNGQPAENYKNTQPIMDTDGSYFVYSKLNVQKSNWEAGNTFTCSVLHEGLHNHHTEKSLSHSPGK light: not shown | – | – | – | – | – | – | 19.3 | 0.56 | 14.6 | 375
H237-MB526/MRAL-k0 (antibody, mouse IgG1, kappa, copies: 2 + 2) heavy: QVQLQESGPGLVKPSETLSLTCAVSGHSISHDHAWSWVRQPPGEGLEWIGFISYSGITNYNPSLQGRVTISRDNSKNTLYLQMNSLRAEDTAVYYCARSLARTTAMDYWGEGTLVTVSSAKTTPPSVYPLAPGSAAQTNSMVTLGCLVKGYFPEPVTVTWNSGSLSSGVHTFPAVLQSDLYTLSSSVTVPSSTWPSETVTCNVAHPASSTKVDKKIVPRDCGCKPCICQPNEVEEVFIFPPKPKDVLTITLTPKVTCVVVDISKDDPEVQFSWFVDDVEVHTAQTQPREEQFNLTFRSVSELPIMHQDWLNGKEFKCRVNSAAFPAPIEKTISKTKGRPKAPQVYTIPPPKEQMAKDKVSLTCMITDFFPEDITVEWQWNGQPAENYKNTQPIMDTDGSYFVYSKLNVQKSNWEAGNTFTCSVLHEGLHNHHTEKSLSHSPGK light: not shown | – | – | – | – | – | – | 33 | 0.904 | 8.5 | 232

Second part, the binder after the results:

relative mFcγRII-binding activity (mIgG1 = 1) [1] [fold] | relative mFcγRIII-binding activity (mIgG1 = 1) [2] [fold] | relative mFcγRII-binding activity (template = 1) [3] [fold] | relative mFcγRIII-binding activity (template = 1) [4] [fold] | relative mFcγRII-binding activity (H237-mIgG1/MRAL-k0 = 1) [1] [fold] | relative mFcγRII-binding activity (template H237-MB515/MRAL-k0 = 1) [1] [fold] | Kd (mouse FcγRIII [5]) [nM] | Kd (mouse FcγRII [6]) [nM] | relative mFcγRIII-binding activity (mIgG1 = 1) (mouse FcγRIII [7]) [fold] | relative mFcγRII-binding activity (mIgG1 = 1) (mouse FcγRII [8]) [fold] | Binder
357 | 3.9 | 2.6 | 2.99 | ≥ 350 | ≥ 1.4 | – | – | – | – | H237-MB548/MRAL-k0 (antibody, mouse IgG1, kappa, copies: 2 + 2) heavy: QVQLQESGPGLVKPSETLSLTCAVSGHSISHDHAWSWVRQPPGEGLEWIGFISYSGITNYNPSLQGRVTISRDNSKNTLYLQMNSLRAEDTAVYYCARSLARTTAMDYWGEGTLVTVSSAKTTPPSVYPLAPGSAAQTNSMVTLGCLVKGYFPEPVTVTWNSGSLSSGVHTFPAVLQSDLYTLSSSVTVPSSTWPSETVTCNVAHPASSTKVDKKIVPRDCGCKPCICEPNEVEMVFIFPPKPKDVLTITLTPKVTCVVVDISKDDPEVQFSWFVDDVEVHTAQTQPREEQFNSTFRSVSELPIMHQDWLNGKEFKCRVDSDAFPAPIERTISKTKGRPKAPQVYTIPPPKEQMAKDKVSLTCMITDFFPEDITVEWQWNGQPAENYKNTQPIMDTDGSYFVYSKLNVQKSNWEAGNTFTCSVLHEGLHNHHTEKSLSHSPGK light: not shown
210 | 5.4 | 1.53 | 4.11 | – | – | – | – | – | – | H237-MB549/MRAL-k0 (antibody, mouse IgG1, kappa, copies: 2 + 2) heavy: QVQLQESGPGLVKPSETLSLTCAVSGHSISHDHAWSWVRQPPGEGLEWIGFISYSGITNYNPSLQGRVTISRDNSKNTLYLQMNSLRAEDTAVYYCARSLARTTAMDYWGEGTLVTVSSAKTTPPSVYPLAPGSAAQTNSMVTLGCLVKGYFPEPVTVTWNSGSLSSGVHTFPAVLQSDLYTLSSSVTVPSSTWPSETVTCNVAHPASSTKVDKKIVPRDCGCKPCICEPNEVEMVFIFPPKPKDVLTITLTPKVTCVVVDISKDDPEVQFSWFVDDVEVHTAQTQPREEQFNLTFRSVSELPIMHQDWLNGKEFKCRVDSDAFPAPIERTISKTKGRPKAPQVYTIPPPKEQMAKDKVSLTCMITDFFPEDITVEWQWNGQPAENYKNTQPIMDTDGSYFVYSKLNVQKSNWEAGNTFTCSVLHEGLHNHHTEKSLSHSPGK light: not shown
170 | 4.5 | 1.24 | 3.43 | – | – | – | – | – | – | H237-MB547/MRAL-k0 (antibody, mouse IgG1, kappa, copies: 2 + 2) heavy: QVQLQESGPGLVKPSETLSLTCAVSGHSISHDHAWSWVRQPPGEGLEWIGFISYSGITNYNPSLQGRVTISRDNSKNTLYLQMNSLRAEDTAVYYCARSLARTTAMDYWGEGTLVTVSSAKTTPPSVYPLAPGSAAQTNSMVTLGCLVKGYFPEPVTVTWNSGSLSSGVHTFPAVLQSDLYTLSSSVTVPSSTWPSETVTCNVAHPASSTKVDKKIVPRDCGCKPCICEPNEVEMVFIFPPKPKDVLTITLTPKVTCVVVDISKDDPEVQFSWFVDDVEVHTAQTQPREEQFNLTFRSVSELPIMHQDWLNGKEFKCRVNSDAFPAPIERTISKTKGRPKAPQVYTIPPPKEQMAKDKVSLTCMITDFFPEDITVEWQWNGQPAENYKNTQPIMDTDGSYFVYSKLNVQKSNWEAGNTFTCSVLHEGLHNHHTEKSLSHSPGK light: not shown
